One may read the Km as the concentration of substrate that gives half-maximal velocity.

Substrate in the data set: Cc1c(CC(=O)NCCCC[C@H](NC(=O)CCN)C(=O)O)c(=O)oc2cc(N)ccc12
In words: cells, lysate or membranes. Particulars: HBSS with 20 mM Hepes, 300 mOsmol/kg (control); fluorescent substrate 0-500 μM.

B1: PepT2 (Oreochromis mossambicus) (protein)
chain: MGKKLFGTNYPVSICFIVVNEFCERFSYYGMKALLTLYFLNYLKWDKDLSTAVYHAFSGLCYFTPILGAFIADSWLGKYKTIIYLSIVYVIGHVVKSVGAIPTVGSTELHIALSMSGLILIALGTGGIKPCVAAFGGDQFGEEHITERQKFFSIFYMSINAGSFLSTIITPILRGDVQCFGGDCYALAFGVPAALMVVALVVFIAGSSLYKRTPPQGNILWEVCNCIGFALKNRWNKSKHDSPRQHWLDWAEEKYSMRLIQEIKMVLRVLVLYIPLPMFWALFDQQGSRWTLQATRMNLAFGNSFAIKPDQMQMLNALLILVFVPIFDLIIYPLVRLCGLKITPLRKMAVGMVFAALAFGAATLVEVNVVKTVVNPAPAGKCLLQVVNLAKGDVSLKAPGTDLFLQSIKYLEDPPGYETVPLSNGELNLEVTGVNGETFSATQKVEEKKAYSVIIYPDAAGITYTLVEDHITKNEDGNPLLRFLNTQPEALNVTVGDKNFYMSSGYNVTHNKTVQRGEYTHATCISNSGKTSKLNLGLLDFGACYTVILTEEAGEIVPHKIEDVKANNVHIAYQIPQYILITAGEVMFSITGLEFSYSQAPANMKSVLQAGWLLTVAFGNVIVLIVAEGAGLEQWIEFLLFACLLLGVCIIFSIMAHFYTYVDPEEMEKLYLENSVKEEDDSDFKKKNNEIQLNKTGKSTRM
As for B1, the Km came to 178.78 ± 19.78 µM.

(Values after paper PMC10825657.)
